Changes are numbered by the printed parent chain. Primed or numbered codes have the meaning given here. Biotin′ = not defined here
T1: LRRC25(21-40) biotin peptide (human, not fully specified; N-terminal NH2; C-terminal GGK-Biotin; native Cys changed to Ser)
T1 peptide: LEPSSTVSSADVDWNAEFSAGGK

T2: LRRC25(36-55) biotin peptide (human, not fully specified; N-terminal NH2; C-terminal GGK-Biotin; native Cys changed to Ser)
T2 peptide: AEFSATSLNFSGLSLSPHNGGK

T3: LRRC25(51-69) biotin peptide (human, not fully specified; N-terminal acetyl; C-terminal GGK-Biotin)
T3 peptide: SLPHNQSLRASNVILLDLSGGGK

T4: LRRC25(66-85) biotin peptide (human, not fully specified; N-terminal acetyl; C-terminal GGK-Biotin)
T4 peptide: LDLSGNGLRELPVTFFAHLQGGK

T5: LRRC25(81-100) biotin peptide (human, not fully specified; N-terminal acetyl; C-terminal GGK-Biotin)
T5 peptide: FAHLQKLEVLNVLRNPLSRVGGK

T6: LRRC25(111-130) biotin peptide (human, not fully specified; N-terminal acetyl; C-terminal GGK-Biotin; native Cys changed to Ser)
T6 peptide: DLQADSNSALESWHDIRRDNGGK

T7: LRRC25(126-145) biotin peptide (human, not fully specified; N-terminal acetyl; C-terminal GGK-Biotin; native Cys changed to Ser)
T7 peptide: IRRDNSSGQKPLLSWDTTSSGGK

T8: LRRC25(141-159) biotin peptide (human, not fully specified; N-terminal acetyl; C-terminal GGK-Biotin; native Cys changed to Ser)
T8 peptide: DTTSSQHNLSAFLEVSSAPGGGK

T9: LRRC25(150-165) biotin peptide (human)
T9 peptide: Ac-SAFLEVSSAPGLASATGG-{Biotin′}

T10: LRRC25(96-115) biotin peptide (human, not fully specified; N-terminal acetyl; C-terminal GGK-Biotin; native Cys changed to Ser)
T10 construct: also called Biotin LRRC25 (96-115) peptide
T10 peptide: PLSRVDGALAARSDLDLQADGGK

B1: anti-LRRC25 chimeric antibody 1A01 (antibody, human IgG4, V domains shown)
VH: EVKLLESGGGLVKPGGSLKLSCAASGFTFSSYAMSWVRQTPEKRLEWVASISRGGNTYYPDSVKGRFTISRDNARNILYLQMSSLRSEDTAMYYCARGNYGNSPFAYWGQGTLVTVSA
VL: DIVMTQSPASLAVSLGQRATISCRASKSVSTSGYSYMHWYQQKPGQPPKLLIYLASNLESGVPARFSGSGSGTDFTLNIHPVEEEDAATYYCQHSRELPFTFGSGTKLEIKR
notes: also called mAb 1A01
B2: anti-LRRC25 chimeric antibody 1E11 (antibody, human IgG4, V domains shown)
VH: EVQLLETGGGLVKPGGSLKLSCAASGFTFSSSAMSWVRQTPEKRLEWVTSISRGGNTYYPDSVKGRFTISRDNARNILYLQMSSLRSEDTAMYYCARGQELRLFAYWGQGTLVTVSA
VL: DIVMTQDAFSNPVTLGTSASISCRSSKSLLHSNGITYLYWYLQKPGQSPQLLIYQMSNLASGVPDRFSSSGSGTDFTLRISRVEAEDVGVYYCAQNLELPFTFGSGTKLEIKR
B3: anti-LRRC25 chimeric antibody 2A07 (antibody, human IgG4, V domains shown)
VH: EVKLDESGGGLVQPGGSLKLSCATSGFTFSDYYMYWVRQTPEKRLEWVAYISNGGGSTYYPDTVKGRFTISRDNAKNTLYLQMSRLKSEDTAMYYCARSTAVSQMDYWGQGTSVTVSS
VL: DIVLTQSPAIMSASPGEKVTLTCSASSSVRSSYLNWYQQKPGSSPKLWIHGTSNLASGVPARFSGSGSGTSYSLTISSMEAEDAASYFCHQWSSYPPTFGAGTKLELKR
B4: anti-LRRC25 chimeric antibody 1C10 (antibody, human IgG4, V domains shown)
VH: B1 VH with V2E, L5D, Y93F, N99D, N102S, P104L
VL: B2 VL with D7A
B5: anti-LRRC25 chimeric antibody 3E08 (antibody, human IgG4, V domains shown)
VH: EVKLLESGGGLVKPGGSLKLSCAASGFTLSSYAMSWVRQTPEKRLEWVASISRSNTTYYPDSVKGRFTISRDNAKNILYLQMSSLRSEDTAMYYCARGVLLRPFASWGQGTLVTVSA
VL: B2 VL with F101L, S105A, I111L
B6: anti-LRRC25 chimeric antibody 1B03 (antibody, human IgG4, V domains shown)
VH: B2 VH with L5V, T7S, S32Y, T49A, V63M
VL: QILLTQSPASLAVSLGQRATISCRASESVDSYGNSFMHWYQQKPGQPPKLLIYLASNLESGVPARFSGSGSRTDFTLTIDPVEADDAATYYCQQNNEDPWTFGGGTKLEIKR

Experiments:
[1] = biological target: T1, LRRC25(21-40) biotin peptide; test: peptide ELISA
Protocol: (§1) To establish if functional chimera anti-LRRC25 antibodies recognize particular regions of LRRC25, ELISA experiments were performed using 10 plate-immobilized 16- to 20-mer overlapping LRRC25(ECD) biotin peptides (Table 7). Biotinylated human LRRC25-His served as a positive control. A typical ELISA was performed by coating overnight at 4° C., 3 ug/mL/25 ul per well of streptavidin (Jackson Immunoresearch, Cat. #016-030-084) in PBS in half-area high binding microtiter wells (Corning Cat. #3690). […] Biotin peptides or biotinylated human LRRC25-His protein were added in duplicate (2 ug/mL/25 ul per well) in assay buffer (blocking buffer containing 0.05% tween 20) and the plate incubated for 45 min at 37° C. The plate was washed as before, 20 nM anti-LRRC25 antibodies in assay buffer added in duplicate into appropriate wells, and the plate incubated as before. The plate was washed and HRP-conjugated secondary antibody in assay buffer added [25 ul per well; goat anti-human IgG (Jackson Immunoresearch, Cat. #715-035-150)], and incubated as before. Antibody bound to plate-immobilized peptide(s) or protein was determined at A450 nm using HRP substrate (3,3′,5,5′-tetramethylbenzidine (TMB); eBioscience; Cat. #00-4201-56); 100 μl/well).

[2] = biological target: T2, LRRC25(36-55) biotin peptide; test: peptide ELISA
Protocol: as §1

[3] = biological target: T3, LRRC25(51-69) biotin peptide; test: peptide ELISA
Protocol: as §1

[4] = biological target: T4, LRRC25(66-85) biotin peptide; test: peptide ELISA
Protocol: as §1

[5] = biological target: T5, LRRC25(81-100) biotin peptide; test: peptide ELISA
Protocol: as §1

[6] = biological target: T6, LRRC25(111-130) biotin peptide; test: peptide ELISA
Protocol: as §1

[7] = biological target: T7, LRRC25(126-145) biotin peptide; test: peptide ELISA
Protocol: as §1

[8] = biological target: T8, LRRC25(141-159) biotin peptide; test: peptide ELISA
Protocol: as §1

[9] = biological target: T9, LRRC25(150-165) biotin peptide; test: peptide ELISA
Protocol: as §1

[10] = biological target: T11, His-tagged human LRRC25 extracellular domain protein, human LRRC25-His (human, UniProt Q8N386 21-165); test: ELISA, plate-immobilized antigen
T11 construct: The entry holds the extracellular domain, a GSG linker and the His tag; also called LRRC25(ECD)-HIS
T11 sequence (Q8N386 other isoform, or with tags, fused parts or gaps): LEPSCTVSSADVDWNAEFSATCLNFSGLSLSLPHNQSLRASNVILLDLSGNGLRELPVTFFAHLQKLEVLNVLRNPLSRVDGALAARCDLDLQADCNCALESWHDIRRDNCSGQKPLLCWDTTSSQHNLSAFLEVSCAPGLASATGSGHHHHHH
Protocol: (§2) To establish the relative binding strengths of anti-LRRC25 antibodies against human LRRC25, and their cross-reactivity with cynomolgus monkey LRRC25, antibody binding curve analyses were performed and EC50 values against plate-immobilized recombinant human and cyno LRRC25 proteins were determined.
(§3) A typical ELISA was performed by coating overnight in PBS, pH 7.4, at 4° C. in high binding microtiter wells with 1 ug/mL/100 ul per well of human LRRC25-His or cyno LRRC25-His. An anti-human LRRC25 antibody (2A3, LS Bio, LS-C174039-100) and anti-HIS-HRP (Miltenyi Biotec; 130-092-783) served as coating controls for the human and cyno LRRC25 proteins, respectively. […] Anti-LRRC25 antibodies were added (100 ul per well) at 500 nM and serially diluted 3-fold in assay buffer (1% skimmed milk in PBS, pH 7.4). The plate was incubated with gentle agitation for 1 h at room temperature. The plate was washed 3× and HRP-conjugated secondary antibody in assay buffer added [100 ul per well; goat anti-human IgG (Jackson Immunoresearch, cat #715-035-150)], and the plate was incubated as before. Antibody bound to plate-immobilized LRRC25(ECD)-HIS was determined at A450 nm using HRP substrate (3,3′,5,5′-tetramethylbenzidine (TMB); eBioscience; 00-4201-56); 100 μl/well).

[11] = biological target: T12, His-tagged cynomolgus monkey LRRC25 extracellular domain protein, cyno LRRC25-His (cynomolgus monkey); test: ELISA, plate-immobilized antigen
T12 construct: The entry holds the extracellular domain, a GSG linker and the His tag
T12 sequence (chain, as listed by the source limits assumed): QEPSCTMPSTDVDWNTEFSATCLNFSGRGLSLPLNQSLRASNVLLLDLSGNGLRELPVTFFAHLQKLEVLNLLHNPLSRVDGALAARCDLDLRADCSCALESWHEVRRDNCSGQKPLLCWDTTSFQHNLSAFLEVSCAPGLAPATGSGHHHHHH
Protocol: as §2, §3

[12] = biological target: T13, biotinylated human LRRC25-His protein (human, UniProt Q8N386 21-165, biotinylated (sites not given)); test: ELISA, 20 nM antibody, biotinylated antigen on streptavidin plate
T13 construct: also called Biotin LRRC25-His; biotinylated LRRC25 protein
T13 sequence (Q8N386 other isoform, or with tags, fused parts or gaps): as the sequence (Q8N386 other isoform, or with tags, fused parts or gaps) above
Protocol: as §1

[13] = biological target: T10, LRRC25(96-115) biotin peptide; test: as above
Protocol: as §1

[14] = biological target: T10, LRRC25(96-115) biotin peptide; test: peptide ELISA
Protocol: as §1

[15] = biological target: T12, His-tagged cynomolgus monkey LRRC25 …; test: ELISA, plate-immobilized cyno LRRC25-His
Protocol: as §3

Row | Binder | binding result [1] | binding result [2] | binding result [3] | binding result [4] | binding result [5] | binding result [6] | binding result [7] | binding result [8] | binding result [9] | EC50 [10] | EC50 [11] | absorbance (A450) [12] | absorbance (A450) [13] | binding result [14] | binding result [15]
1 | B1 | no binding (tested: 20 nM) | no binding (tested: 20 nM) | no binding (tested: 20 nM) | no binding (tested: 20 nM) | no binding (tested: 20 nM) | no binding (tested: 20 nM) | no binding (tested: 20 nM) | no binding (tested: 20 nM) | no binding (tested: 20 nM) | 4.1 nM | > 500 nM | 0.456 A450 | 2.33 A450 | – | –
2 | B2 | no binding (tested: 20 nM) | no binding (tested: 20 nM) | no binding (tested: 20 nM) | no binding (tested: 20 nM) | no binding (tested: 20 nM) | no binding (tested: 20 nM) | no binding (tested: 20 nM) | no binding (tested: 20 nM) | no binding (tested: 20 nM) | 0.58 nM | ~500 nM | 1.89 A450 | 2.65 A450 | – | –
3 | B3 | no binding (tested: 20 nM) | no binding (tested: 20 nM) | no binding (tested: 20 nM) | no binding (tested: 20 nM) | no binding (tested: 20 nM) | no binding (tested: 20 nM) | no binding (tested: 20 nM) | no binding (tested: 20 nM) | no binding (tested: 20 nM) | 0.63 nM | 4.6 nM | 2.44 A450 | 0.052 A450 | no binding (tested: 20 nM) | –
4 | B4 | no binding (tested: 20 nM) | no binding (tested: 20 nM) | no binding (tested: 20 nM) | no binding (tested: 20 nM) | no binding (tested: 20 nM) | no binding (tested: 20 nM) | no binding (tested: 20 nM) | no binding (tested: 20 nM) | no binding (tested: 20 nM) | 73.4 nM | ~1000 nM | 0.421 A450 | 0.334 A450 | – | –
5 | B5 | no binding (tested: 20 nM) | no binding (tested: 20 nM) | no binding (tested: 20 nM) | no binding (tested: 20 nM) | no binding (tested: 20 nM) | no binding (tested: 20 nM) | no binding (tested: 20 nM) | no binding (tested: 20 nM) | no binding (tested: 20 nM) | ~1000 nM | – | 0.152 A450 | 0.052 A450 | no binding (tested: 20 nM) | no binding (tested: 500 nM)
6 | B6 | no binding (tested: 20 nM) | no binding (tested: 20 nM) | no binding (tested: 20 nM) | no binding (tested: 20 nM) | no binding (tested: 20 nM) | no binding (tested: 20 nM) | no binding (tested: 20 nM) | no binding (tested: 20 nM) | no binding (tested: 20 nM) | 1.3 nM | 42.5 nM | 1.88 A450 | 1.64 A450 | – | –
